This test deals with tau RD containing the disease-associated P301S substitution fused to either CFP or YFP (human) (UniProt P10636). Description: FRET or BRET; HEK293T tau biosensor cells with up to 200 nM freshly prepared, oligomeric or fibrillar Aβ, no tau seeds, no transfection reagent; FRET by flow cytometry after 48 h and after 2 weeks. (In general: In BRET a luciferase serves as donor, and the signal depends on an acceptor being close.)

As for “tau RD containing the disease-associated P301S substitution fused to either CFP or YFP (from UniProt P10636-8 244-372) (domain or fragment)”, the integrated FRET density (IFD) is less than 10.

For the origin of these results see publication PMC6800506.
